According to article PMC6232118:

What was measured:
Test in all cases: EMSA
Settings in all cases: pH 7.9, temperature not given, scale: slope of unbound DNA vs protein
[1] = tested on: FlhD (S. enterica);FlhC (E. coli) (Salmonella enterica sv Typhimurium;Escherichia coli)
[2] = tested on: FlhD (E. coli);FlhC (E. coli) (Escherichia coli;Escherichia coli)
[3] = tested on: FlhD (E. coli);FlhC (S. enterica) (Escherichia coli;Salmonella enterica sv Typhimurium)
[4] = tested on: FlhD (S. enterica);FlhC (S. enterica) (Salmonella enterica sv Typhimurium;Salmonella enterica sv Typhimurium)

With PflgAB promoter PCR product the binding signal [1] was -1120, the binding signal [2] was -1570 and the binding signal [3] was -784. For the same substance, the binding signal [4] was -906.
